Tests used:
[1] = molecular target: T1, elongated peptide SFSGYLLYPMA; test: C8-C competitive ELISA with HRP-labelled 13G5
T1 construct: Selection peptide with one more alanine at the C-terminus; synthetic (Chinese Peptide Company); also called elongated peptide (one additional amino acid)
T1 peptide: SFSGYLLYPMA
Protocol: (§1) ELISA-plates used for the assay development were Streptavidin-coated from Roche (cat.: 11940279). All ELISA plates were analyzed with the ELISA reader from Molecular Devices, SpectraMax M, (CA, USA). We labelled the selected monoclonal antibody with horseradish peroxidase (HRP) using the Lightning link HRP labelling kit according to the instructions of the manufacturer (Innovabioscience, Babraham, Cambridge, UK). A 96-well streptavidin plate was coated with biotinylated synthetic peptide biotin-[…] (SEQ ID NO: 25) (Chinese Peptide Company, China) dissolved in assay buffer (50 mM Trizma, 0.46 mM Tween 20, 0.08 mM Phenol Red, 34 mM NaCl, 0.36% Bronidox L5, 1% BSA, pH 7.4) and incubated 30 minutes at 20° C. 20 μL of standard peptide or samples diluted in assay buffer were added to appropriate wells, followed by 100 μL of HRP conjugated monoclonal antibody 13G5, and incubated 20 hour at 4° C. Finally, 100 μL tetramethylbenzinidine (TMB) (Kem-En-Tec cat.4380H) was added and the plate was incubated 15 minutes at 20° C. in the dark. All the above incubation steps included shaking at 300 rpm. After each incubation step the plate was washed five times in washing buffer (20 mM Tris, 50 mM NaCl). The TMB reaction was stopped by adding 100 μL of stopping solution (1% H₂SO₄) and measured at 450 nm with 650 nm as the reference. […]

[2] = molecular target: T2, nonsense peptide YLSGPFMSYL; test: C8-C competitive ELISA with HRP-labelled 13G5
T2 construct: Control peptide of the C8-C specificity test; also called nonsense peptide (C8-C)
T2 peptide: YLSGPFMSYL
Protocol: as §1

B1: monoclonal antibody NB683-13G5 (antibody, mouse IgG1, kappa, V domains shown)
VH: EVLLQQSGPELEKPGASVKISCKASGYSLTDYNMNWVKQSDGKSLEWIGIIDPNYGDTNYNQKFKDKATLTVDKSSNTAHMQLKSLTSDDSAVYYCARSGYYGNSHYGLDYWGQGTSVTVSS
VL: QIVLTQSPAIMSASPGERVTMTCSVSSSVGYIHWYQQKSGTSPKRWISDTSKLASGVPSRFSGSGSGASYSLTIDRVEAEDAATYYCQQWSSNPPTFGGGTKLEMKR
notes: also called clone 13G5; monoclonal antibody 13G5
binding result [1]: no binding
binding result [2]: no binding

From US20220196676A1 (NORDIC BIOSCIENCE A S, published 2022)
